According to PMC4368157, “The Interaction Affinity between Vascular Cell Adhesion Molecule-1 (VCAM-1) and Very Late Antigen-4 (VLA-4) Analyzed by Quantitative FRET” (PLoS ONE, 2015):
Each block holds one binder with its values, some of them ahead of it.

Experiments:
[1] = biological target: T1, Alexa Fluor 488-VLA-4 conjugate (human recombinant Very late antigen-4, soluble form) (human, UniProt P13612 35-977; P05556 21-728, Alexa Fluor 488 on aliphatic amine groups (amine terminus, ε-amino groups of lysines); F/P ratio of the conjugate 3.0 ± 0.8; sites and chain not stated | Alexa Fluor 488 on aliphatic amine groups …); test: FRET or BRET; in solution, steady state; donor AF488-VLA-4 fixed at 350 nM, acceptor AF546-VCAM-1 titrated up to 850 nM; PBS with 1 mM EGTA, 2 mM MgCl2, pH 7.4, 30 minutes, 96-well plate; excitation 470 nm; fit assumes one-to-one interaction; settings: both partners purified
T1 construct: integrin α4 subunit (CD49d) of VLA-4, human, recombinant soluble form; integrin β1 subunit (CD29) of VLA-4, human, recombinant soluble form; also called AF488-VLA-4; A488-VLA-4; source: bought: R&D Systems; conjugated with Alexa Fluor 488 succinimidyl ester, dialysed

[2] = biological target: T2, human recombinant VLA-4 (Very late antigen-4, soluble form, without fluorophore) (human, UniProt P13612 35-977; P05556 21-728); test: SPR; BIAcore 3000, CM5 chip; VCAM-1Fc captured by immobilised anti-human IgG (Fc); VLA-4 flowed at 100, 150, 400, 450 and 500 nM; PBS with 1 mM EGTA and 2 mM Mg2+; 5 μl/min; Langmuir model; settings: both partners purified
T2 construct: integrin α4 subunit (CD49d) of VLA-4, human, recombinant soluble form; integrin β1 subunit (CD29) of VLA-4, human, recombinant soluble form; Same bought protein as in m1, not conjugated; also called CD49d/CD29; α4β1; source: bought: R&D Systems
T2 sequence (P13612 35-977, chain 1 of 2): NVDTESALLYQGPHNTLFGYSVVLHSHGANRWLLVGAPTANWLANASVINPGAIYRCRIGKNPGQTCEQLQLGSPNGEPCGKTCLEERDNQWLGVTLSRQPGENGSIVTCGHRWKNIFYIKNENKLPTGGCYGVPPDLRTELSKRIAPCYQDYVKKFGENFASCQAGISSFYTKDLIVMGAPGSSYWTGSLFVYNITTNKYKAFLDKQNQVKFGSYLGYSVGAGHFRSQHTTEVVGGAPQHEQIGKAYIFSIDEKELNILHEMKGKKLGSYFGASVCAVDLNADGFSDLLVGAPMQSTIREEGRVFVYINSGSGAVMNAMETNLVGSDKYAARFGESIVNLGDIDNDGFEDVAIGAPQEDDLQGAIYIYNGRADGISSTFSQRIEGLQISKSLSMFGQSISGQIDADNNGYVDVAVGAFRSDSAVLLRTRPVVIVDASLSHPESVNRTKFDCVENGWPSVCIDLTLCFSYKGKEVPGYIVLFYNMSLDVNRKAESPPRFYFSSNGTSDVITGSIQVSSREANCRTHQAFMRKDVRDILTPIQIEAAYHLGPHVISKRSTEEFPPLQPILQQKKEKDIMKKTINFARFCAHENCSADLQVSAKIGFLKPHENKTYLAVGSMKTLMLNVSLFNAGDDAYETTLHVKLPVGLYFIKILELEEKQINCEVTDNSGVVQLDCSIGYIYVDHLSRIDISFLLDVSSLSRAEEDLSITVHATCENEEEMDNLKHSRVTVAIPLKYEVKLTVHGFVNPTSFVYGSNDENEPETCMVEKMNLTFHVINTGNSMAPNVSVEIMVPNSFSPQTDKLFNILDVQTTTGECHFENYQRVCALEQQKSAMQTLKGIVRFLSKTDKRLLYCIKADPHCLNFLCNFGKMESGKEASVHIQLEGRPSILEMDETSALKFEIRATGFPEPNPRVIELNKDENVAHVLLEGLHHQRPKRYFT
T2 sequence (P05556 21-728, chain 2 of 2): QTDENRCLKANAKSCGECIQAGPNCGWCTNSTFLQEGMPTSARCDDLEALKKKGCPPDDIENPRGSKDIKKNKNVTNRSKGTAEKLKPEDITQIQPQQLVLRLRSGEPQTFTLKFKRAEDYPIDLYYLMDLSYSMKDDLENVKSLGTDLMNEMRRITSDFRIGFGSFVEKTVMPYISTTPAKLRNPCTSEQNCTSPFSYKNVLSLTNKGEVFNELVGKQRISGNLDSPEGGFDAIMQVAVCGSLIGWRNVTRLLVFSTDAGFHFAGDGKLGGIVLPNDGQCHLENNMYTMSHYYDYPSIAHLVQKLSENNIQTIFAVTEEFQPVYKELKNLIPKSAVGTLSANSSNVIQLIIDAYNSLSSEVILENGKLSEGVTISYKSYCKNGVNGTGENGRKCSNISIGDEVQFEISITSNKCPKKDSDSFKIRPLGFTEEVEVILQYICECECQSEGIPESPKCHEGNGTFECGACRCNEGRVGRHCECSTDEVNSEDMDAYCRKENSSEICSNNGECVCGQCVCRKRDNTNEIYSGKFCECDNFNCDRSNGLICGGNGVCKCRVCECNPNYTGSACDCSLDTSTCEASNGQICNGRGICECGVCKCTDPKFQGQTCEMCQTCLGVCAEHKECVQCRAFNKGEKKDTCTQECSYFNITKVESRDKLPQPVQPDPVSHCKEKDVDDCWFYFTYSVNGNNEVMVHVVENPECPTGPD

T1 sequence (P13612 35-977, chain 1 of 2): as the sequence (P13612 35-977, chain 1 of 2) above
T1 sequence (P05556 21-728, chain 2 of 2): as the sequence (P05556 21-728, chain 2 of 2) above

Kd [1]: 41.8 nM
B1: Alexa Fluor 546-VCAM-1 conjugate (human recombinant Vascular Cell Adhesion Molecule-1, soluble form) (ligand, UniProt P19320 25-698, looked up)
chain: FKIETTPESRYLAQIGDSVSLTCSTTGCESPFFSWRTQIDSPLNGKVTNEGTTSTLTMNPVSFGNEHSYLCTATCESRKLEKGIQVEIYSFPKDPEIHLSGPLEAGKPITVKCSVADVYPFDRLEIDLLKGDHLMKSQEFLEDADRKSLETKSLEVTFTPVIEDIGKVLVCRAKLHIDEMDSVPTVRQAVKELQVYISPKNTVISVNPSTKLQEGGSVTMTCSSEGLPAPEIFWSKKLDNGNLQHLSGNATLTLIAMRMEDSGIYVCEGVNLIGKNRKEVELIVQEKPFTVEISPGPRIAAQIGDSVMLTCSVMGCESPSFSWRTQIDSPLSGKVRSEGTNSTLTLSPVSFENEHSYLCTVTCGHKKLEKGIQVELYSFPRDPEIEMSGGLVNGSSVTVSCKVPSVYPLDRLEIELLKGETILENIEFLEDTDMKSLENKSLEMTFIPTIEDTGKALVCQAKLHIDDMEFEPKQRQSTQTLYVNVAPRDTTVLVSPSSILEEGSSVNMTCLSQGFPAPKILWSRQLPNGELQPLSENATLTLISTKMEDSGVYLCEGINQAGRSRKEVELIIQVTPKDIKLTAFPSESVKEGDTVIISCTCGNVPETWIILKKKAETGDTVLKSIDGAYTIRKAQLKDAGVYECESKNKVGSQLRSLTLDVQGRENNKDYFSPE
modifications: Alexa Fluor 546 on aliphatic amine groups (amine terminus, ε-amino groups of lysines); F/P ratio 0.60 ± 0.02; sites not stated
notes: Vascular Cell Adhesion Molecule-1 (VCAM-1/CD106), human, recombinant soluble form; also called AF546-VCAM-1; CD106; source: bought: R&D Systems; conjugated with Alexa Fluor 546 succinimidyl ester, dialysed

Kd [2]: 39.6 ± 1.78 nM
B2: human recombinant VCAM-1 Fc chimera (Fc fusion, UniProt P19320 25-698, looked up)
chain: B1 chain
notes: Vascular Cell Adhesion Molecule-1 (VCAM-1/CD106), human, recombinant soluble form fused to Fc; source: bought: R&D Systems
